{
  "source": "patent US20230250135A1",
  "binders": {"B1": {"name": "CR9114 (antibody, V domains shown)", "VH": "QVQLVQSGAEVKKPGSSVKVSCKSSGGTSNNYAISWVRQAPGQGLDWMGGISPIFGSTAYAQKFQGRVTISADIFSNTAYMELNSLTSEDTAVYFCARHGNYYYYSGMDVWGQGTTVTVSS", "VL": "SYVLTQPPAVSGTPGQRVTISCSGSDSNIGRRSVNWYQQFPGTAPKLLIYSNDQRPSVVPDRFSGSKSGTSASLAISGLQSEDEAEYYCAAWDDSLKGAVFGGGTQLTVL"}},
  "settings_in_all_cases": "remark: other sources report otherwise",
  "key": {"[1]": {"biological_target": "UFV161453 (influenza A virus A/Hong Kong/1/68 (H3N2))"}, "[2]": {"biological_target": "UFV161333 (influenza A virus A/Hong Kong/1/68 (H3N2))", "assay": "Binding-AlphaLISA, Expi293F supernatant, normalized to UFV161686"}, "[3]": {"biological_target": "UFV161715 (influenza A virus A/Hong Kong/1/68 (H3N2))", "assay": "Binding-AlphaLISA, Expi293F supernatant, normalized to UFV161333"}, "[4]": {"biological_target": "UFV161721 (influenza A virus A/Hong Kong/1/68 (H3N2))", "assay": "Binding-AlphaLISA, Expi293F supernatant, normalized to UFV161333"}},
  "data": [
    {"binder": "B1", "values": [
      {"measurement": "binding relative to reference UFV161454", "setting": "[1]", "result": 61, "unit": "%"},
      {"measurement": "fold increase in binding relative to reference UFV161686", "setting": "[2]", "result": 5, "unit": "fold"},
      {"measurement": "binding relative to reference UFV161333", "setting": "[3]", "result": 145, "unit": "%"},
      {"measurement": "binding relative to reference UFV161333", "setting": "[4]", "result": 145, "unit": "%"}
    ]}
  ]
}
